US20230357427A1 (SHANGHAI IMMUNOHEAD BIOTECHNOLOGY, published 2023)

B1: H2L1 (antibody, V domains shown)
VH: QVQLVQSGAEVKKPGASVKVSCKASGYTFTNYWINWVRQAPGQGLEWIGNIYPSYIYTNYNQEFKDKVTLTVDESTSTAYMELSSLRSEDTAVYYCTRSPYGYDEYGLDYWGQGTTVTVSS
VL: DIQLTQSPSSLSASVGDRVTMTCKSSQSLLNSRNQKNYLTWYQQKPGKAPKLLIYWASTRESGVPSRFSGSGSGTDFTLTISSVQPEDFATYYCQNDYVYPLTFGQGTKLEIK
notes: Recombinant antibody from ExpiCHO-s; the limits were counted from the printed signal peptide, linker and hinge
B2: H2L4 (antibody, V domains shown)
VH: QVQLVQSGAEVKKPGASVKVSCKASGYTFTNYWINWVRQAPGQGLEWIGNIYPSYIYTNYNQEFKDKVTLTVDESTSTAYMELSSLRSEDTAVYYCTRSPYGYDEYGLDYWGQGTTVTVSS
VL: EIVLTQSPATLSLSPGERATMSCKSSQSLLNSRNQKNYLTWYQQKPGQAPRLLIYWASTRESGIPARFSGSGSGTDFTLTISSLEPEDFAVYYCQNDYVYPLTFGQGTKLEIK
notes: as for B1
B3: H2L3 (antibody, V domains shown)
VH: QVQLVQSGAEVKKPGASVKVSCKASGYTFTNYWINWVRQAPGQGLEWIGNIYPSYIYTNYNQEFKDKVTLTVDESTSTAYMELSSLRSEDTAVYYCTRSPYGYDEYGLDYWGQGTTVTVSS
VL: DIVLTQSPDSLAVSLGERATMNCKSSQSLLNSRNQKNYLTWYQQKPGQPPKLLIYWASTRESGVPDRFSGSGSGTDFTLTISSLQAEDVAVYYCQNDYVYPLTFGQGTKLEIK
notes: as for B1
B4: H2L2 (antibody, V domains shown)
VH: QVQLVQSGAEVKKPGASVKVSCKASGYTFTNYWINWVRQAPGQGLEWIGNIYPSYIYTNYNQEFKDKVTLTVDESTSTAYMELSSLRSEDTAVYYCTRSPYGYDEYGLDYWGQGTTVTVSS
VL: DIQLTQSPSSLSASVGDRVTMTCKSSQSLLNTRNQKNYLTWYQQKPGKAPKLLIYWASTRESGVPSRFSGSGSGTDFTLTISSLQPEDFATYYCQNDYVYPLTFGQGTKLEIK
notes: as for B1
B5: H3L3 (antibody, V domains shown)
VH: QVQLVQSGAEVKKPGASVKVSCKASGYTFTNYWINWVRQAPGQGLEWIGNIYPSYIYTNYNQEFKDRVTLTRDTSISTAYMELSRLRSDDTAVYYCTRSPYGYDEYGLDYWGQGTTVTVSS
VL: DIVLTQSPDSLAVSLGERATMNCKSSQSLLNSRNQKNYLTWYQQKPGQPPKLLIYWASTRESGVPDRFSGSGSGTDFTLTISSLQAEDVAVYYCQNDYVYPLTFGQGTKLEIK
notes: as for B1
B6: H5L1 (antibody, V domains shown)
VH: QVQLVQSGAEVKKPGASVKVSCKASGYTFTNYWINWVRQAPGQGLEWIGNIYPSYIYTNYNQEFKDRVTMTRDTSISTAYMELSRLRSDDTAVYYCTRSPYGYDEYGLDYWGQGTTVTVSS
VL: DIQLTQSPSSLSASVGDRVTMTCKSSQSLLNSRNQKNYLTWYQQKPGKAPKLLIYWASTRESGVPSRFSGSGSGTDFTLTISSVQPEDFATYYCQNDYVYPLTFGQGTKLEIK
notes: as for B1
B7: H1L4 (antibody, V domains shown)
VH: QVQLVQSGAEVKKPGASVKLSCKASGYTFTNYWINWVKQAPGQGLEWIGNIYPSYIYTNYNQEFKDKVTLTVDESTSTAYMELSSLRSEDTAVYYCTRSPYGYDEYGLDYWGQGTTVTVSS
VL: EIVLTQSPATLSLSPGERATMSCKSSQSLLNSRNQKNYLTWYQQKPGQAPRLLIYWASTRESGIPARFSGSGSGTDFTLTISSLEPEDFAVYYCQNDYVYPLTFGQGTKLEIK
notes: as for B1
B8: H3L1 (antibody, V domains shown)
VH: QVQLVQSGAEVKKPGASVKVSCKASGYTFTNYWINWVRQAPGQGLEWIGNIYPSYIYTNYNQEFKDRVTLTRDTSISTAYMELSRLRSDDTAVYYCTRSPYGYDEYGLDYWGQGTTVTVSS
VL: DIQLTQSPSSLSASVGDRVTMTCKSSQSLLNSRNQKNYLTWYQQKPGKAPKLLIYWASTRESGVPSRFSGSGSGTDFTLTISSVQPEDFATYYCQNDYVYPLTFGQGTKLEIK
notes: as for B1
B9: H4L1 (antibody, V domains shown)
VH: QVQLVQSGAEVKKPGASVKVSCKASGYTFTNYWINWVRQAPGQGLEWIGNIYPSYIYTNYAQKFQGRVTLTRDTSTSTVYMELSSLRSEDTAVYYCTRSPYGYDEYGLDYWGQGTTVTVSS
VL: DIQLTQSPSSLSASVGDRVTMTCKSSQSLLNSRNQKNYLTWYQQKPGKAPKLLIYWASTRESGVPSRFSGSGSGTDFTLTISSVQPEDFATYYCQNDYVYPLTFGQGTKLEIK
notes: as for B1
B10: H3L2 (antibody, V domains shown)
VH: QVQLVQSGAEVKKPGASVKVSCKASGYTFTNYWINWVRQAPGQGLEWIGNIYPSYIYTNYNQEFKDRVTLTRDTSISTAYMELSRLRSDDTAVYYCTRSPYGYDEYGLDYWGQGTTVTVSS
VL: DIQLTQSPSSLSASVGDRVTMTCKSSQSLLNTRNQKNYLTWYQQKPGKAPKLLIYWASTRESGVPSRFSGSGSGTDFTLTISSLQPEDFATYYCQNDYVYPLTFGQGTKLEIK
notes: as for B1
B11: H1L1 (antibody, V domains shown)
VH: QVQLVQSGAEVKKPGASVKLSCKASGYTFTNYWINWVKQAPGQGLEWIGNIYPSYIYTNYNQEFKDKVTLTVDESTSTAYMELSSLRSEDTAVYYCTRSPYGYDEYGLDYWGQGTTVTVSS
VL: DIQLTQSPSSLSASVGDRVTMTCKSSQSLLNSRNQKNYLTWYQQKPGKAPKLLIYWASTRESGVPSRFSGSGSGTDFTLTISSVQPEDFATYYCQNDYVYPLTFGQGTKLEIK
notes: Recombinant antibody from ExpiCHO-s; These limits were counted from the printed signal peptide, linker and hinge
B12: H1L3 (antibody, V domains shown)
VH: QVQLVQSGAEVKKPGASVKLSCKASGYTFTNYWINWVKQAPGQGLEWIGNIYPSYIYTNYNQEFKDKVTLTVDESTSTAYMELSSLRSEDTAVYYCTRSPYGYDEYGLDYWGQGTTVTVSS
VL: DIVLTQSPDSLAVSLGERATMNCKSSQSLLNSRNQKNYLTWYQQKPGQPPKLLIYWASTRESGVPDRFSGSGSGTDFTLTISSLQAEDVAVYYCQNDYVYPLTFGQGTKLEIK
notes: as for B1
B13: mHmL (antibody, V domains shown)
VH: QVKLQQSGAELVRPGASVKLSCKASGYTFTNYWINWVKQRPGQGLEWIGNIYPSYIYTNYNQEFKDKVTLTVDESSSTAYMQLSSPTSEDSAVYYCTRSPYGYDEYGLDYWGQGTTVTVSS
VL: DIELTQSPSSLTVTAGEKVTMNCKSSQSLLNSRNQKNYLTWYQQKPGQPPKLLIYWASTRESGVPDRFTGSGSGTDFTLTISSVQAEDLAVYYCQNDYVYPLTFGAGTKLEIK
notes: it was captured on Protein A; also called original antibody mHmL; EpCAM antibody

How the values were obtained:
[1] = biological target: T1, EpCAM on human tumor cells (SW480, HCT116, HCT116-Luc, KATO-III, A549) (human, UniProt P16422 24-314); assay: flow cytometry on HCT116 cells
T1 construct: whole, on cells; also called epithelial cell adhesion molecule
T1 sequence (looked up): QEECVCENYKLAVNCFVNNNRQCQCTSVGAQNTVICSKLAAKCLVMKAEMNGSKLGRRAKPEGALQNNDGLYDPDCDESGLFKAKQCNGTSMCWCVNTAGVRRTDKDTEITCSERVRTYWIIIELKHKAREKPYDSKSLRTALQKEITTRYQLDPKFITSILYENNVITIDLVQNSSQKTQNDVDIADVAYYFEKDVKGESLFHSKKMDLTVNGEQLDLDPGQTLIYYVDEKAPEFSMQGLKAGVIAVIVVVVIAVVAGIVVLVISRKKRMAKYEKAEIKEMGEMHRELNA
Excerpt: (§1) The EC50 values of each recombinant antibody on SW480 and HCT116 are shown in Table 3, which are derived from FIGS. 1-4.

[2] = biological target: T1, EpCAM on human tumor cells (SW480, …); assay: flow cytometry on SW480 cells
Excerpt: as §1

Binder | EC50 [1] [µg/mL] | EC50 [2] [µg/mL]
B1 | 0.583 | 0.599
B2 | 0.584 | 0.655
B3 | 0.584 | 0.653
B4 | 0.537 | 0.595
B5 | 0.492 | 0.542
B6 | 0.426 | 0.449
B7 | 0.602 | 0.675
B8 | 0.478 | 0.564
B9 | 0.474 | 0.568
B10 | 0.472 | 0.569
B11 | 0.503 | 0.567
B12 | 0.563 | 0.631
B13 | 0.468 | 0.581
